Substitutions are numbered along the chain they refer to. Names and notes keep the numbering of the source.
T1: human G-CSF receptor (human, UniProt Q99062 25-836)
T1 sequence (looked up): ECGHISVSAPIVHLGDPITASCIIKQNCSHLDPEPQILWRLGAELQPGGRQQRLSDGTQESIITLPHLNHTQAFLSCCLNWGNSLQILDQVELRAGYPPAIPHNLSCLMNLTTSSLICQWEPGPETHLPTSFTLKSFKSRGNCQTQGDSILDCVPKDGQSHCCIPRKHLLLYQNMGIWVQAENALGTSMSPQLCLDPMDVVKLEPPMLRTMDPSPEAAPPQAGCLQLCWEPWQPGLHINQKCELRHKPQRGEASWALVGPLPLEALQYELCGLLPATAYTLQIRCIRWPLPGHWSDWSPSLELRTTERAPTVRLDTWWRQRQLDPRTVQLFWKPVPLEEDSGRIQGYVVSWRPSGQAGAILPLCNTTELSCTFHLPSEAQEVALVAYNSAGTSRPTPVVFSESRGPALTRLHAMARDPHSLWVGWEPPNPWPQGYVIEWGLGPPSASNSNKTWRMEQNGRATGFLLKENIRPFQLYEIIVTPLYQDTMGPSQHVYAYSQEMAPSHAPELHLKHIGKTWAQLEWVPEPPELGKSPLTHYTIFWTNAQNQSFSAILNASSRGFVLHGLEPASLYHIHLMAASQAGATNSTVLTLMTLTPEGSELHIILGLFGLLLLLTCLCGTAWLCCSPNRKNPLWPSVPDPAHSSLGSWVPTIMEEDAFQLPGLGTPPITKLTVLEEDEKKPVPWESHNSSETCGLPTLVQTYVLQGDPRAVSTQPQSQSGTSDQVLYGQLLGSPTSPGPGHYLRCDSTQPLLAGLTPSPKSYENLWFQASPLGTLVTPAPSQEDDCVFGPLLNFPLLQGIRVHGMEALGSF

B1: non-conjugated hG-CSF (Neupogen®) (ligand)
chain: MTPLGPASSLPQSFLLKCLEQVRKIQGDGAALQEKLCATYKLCHPEELVLLGHSLGIPWAPLSSCPSQALQLAGCLSQLHSGLFLYQGLLQALEGISPELGPTLDTLQLDVADFATTIWQQMEELGMAPALQPTQGAMPAFASAFQRRAGGVLVASHLQSFLEVSYRVLRHLAQP
B2: G-CSF variant K16/34/40R Q120K T133K, non-conjugated (ligand)
chain: TPLGPASSLPQSFLLRCLEQVRKIQGDGAALQERLCATYRLCHPEELVLLGHSLGIPWAPLSSCPSQALQLAGCLSQLHSGLFLYQGLLQALEGISPELGPTLDTLQLDVADFATTIWQKMEELGMAPALQPKQGAMPAFASAFQRRAGGVLVASHLQSFLEVSYRVLRHLAQP
B3: G-CSF variant K16/34/40R Q120K S142K, non-conjugated (ligand)
chain: B2 chain with K133T, S142K
B4: G-CSF variant K16/34/40R T105K S159K conjugated to SPA-PEG 5000 (ligand)
chain: B2 chain with T105K, K120Q, K133T, S159K
modifications: SPA-PEG 5000 conjugated to the available PEGylation sites
B5: G-CSF variant K16/34/40R Q70K Q90K Q120K, non-conjugated (ligand)
chain: B2 chain with Q70K, Q90K, K133T
B6: G-CSF variant K16/34/40R Q120K T133K conjugated to SPA-PEG 5000 (ligand)
chain: B2 chain
modifications: SPA-PEG 5000 conjugated to the available PEGylation sites
B7: G-CSF variant K16/34/40R Q120K S142K conjugated to SPA-PEG 5000 (ligand)
chain: B2 chain with K133T, S142K
modifications: SPA-PEG 5000 conjugated to the available PEGylation sites
B8: G-CSF variant K16/34/40R Q70K Q90K T105K, non-conjugated (ligand)
chain: B2 chain with Q70K, Q90K, T105K, K120Q, K133T
B9: G-CSF variant K16/34/40R Q70K Q90K T105K conjugated to SPA-PEG 5000 (ligand)
chain: B2 chain with Q70K, Q90K, T105K, K120Q, K133T
modifications: SPA-PEG 5000 conjugated to the available PEGylation sites
B10: G-CSF variant K16/34/40R T105K S159K, non-conjugated (ligand)
chain: B2 chain with T105K, K120Q, K133T, S159K
B11: G-CSF variant K16/34/40R conjugated to SPA-PEG 12000 (ligand)
chain: B2 chain with K120Q, K133T
modifications: conjugated to SPA-PEG 12000
B12: G-CSF variant K16/34/40R Q90K conjugated to SPA-PEG 20000 (ligand)
chain: B2 chain with Q90K, K120Q, K133T
modifications: conjugated to SPA-PEG 20000
B13: G-CSF variant K16/34/40R conjugated to SPA-PEG 20000 (ligand)
chain: B2 chain with K120Q, K133T
modifications: conjugated to SPA-PEG 20000
B14: G-CSF variant K16/34/40R Q90K T105K S159K conjugated to SPA-PEG 20000 (ligand)
chain: B2 chain with Q90K, T105K, K120Q, K133T, S159K
modifications: conjugated to SPA-PEG 20000
B15: G-CSF variant K16/34/40R Q90K T105K conjugated to SPA-PEG 20000 (ligand)
chain: B2 chain with Q90K, T105K, K120Q, K133T
modifications: conjugated to SPA-PEG 20000
B16: G-CSF variant K16/34/40R T105K S159K conjugated to SPA-PEG 12000 (ligand)
chain: B2 chain with T105K, K120Q, K133T, S159K
modifications: conjugated to SPA-PEG 12000
B17: G-CSF variant K16/34/40R Q70K Q90K conjugated to SPA-PEG 12000 (ligand)
chain: B2 chain with Q70K, Q90K, K120Q, K133T
modifications: conjugated to SPA-PEG 12000
B18: G-CSF variant K16/34/40R Q90K T105K conjugated to SPA-PEG 12000 (ligand)
chain: B2 chain with Q90K, T105K, K120Q, K133T
modifications: conjugated to SPA-PEG 12000
B19: G-CSF variant K16/34/40R Q90K T105K S159K conjugated to SPA-PEG 12000 (ligand)
chain: B2 chain with Q90K, T105K, K120Q, K133T, S159K
modifications: conjugated to SPA-PEG 12000
B20: G-CSF variant K16/34/40R T105K S159K conjugated to SPA-PEG 20000 (ligand)
chain: B2 chain with T105K, K120Q, K133T, S159K
modifications: conjugated to SPA-PEG 20000

Biological target: T1, human G-CSF receptor
Test: cell-based or functional assay

EC50 [pM]	Binder
30	B1

Biological target: T1, human G-CSF receptor
Test: cell-based or functional assay
Remark: another data set of the same source

EC50 (% of hG-CSF) non-conjugated	EC50 (% of hG-CSF) conjugated to SPA-PEG 5000	Binder
20 % of hG-CSF		B2
10 % of hG-CSF		B3
	20 % of hG-CSF	B4
20 % of hG-CSF		B5
	8 % of hG-CSF	B6
	2 % of hG-CSF	B7
10 % of hG-CSF		B8
	4 % of hG-CSF	B9
40 % of hG-CSF		B10

Biological target: T1, human G-CSF receptor
Test: cell-based or functional assay
Remark: another data set of the same source

EC50 (% of hG-CSF) conjugated to SPA-PEG 12000	EC50(% of hG-CSF) conjugated to SPA-PEG 20000	Binder
10 % of hG-CSF		B11
	7 % of hG-CSF	B12
	1 % of hG-CSF	B13
	< 1 % of hG-CSF	B14
	< 1 % of hG-CSF	B15
6 % of hG-CSF		B16
8 % of hG-CSF		B17
1 % of hG-CSF		B18
1 % of hG-CSF		B19
	5 % of hG-CSF	B20

Reference: patent publication US20030118612A1 (MAXYGEN, published 2003)
